Measured values: patent US20250388623A1, “PEPTIDE INHIBITOR AND USE THEREOF” (CHENGDU BRILLIANT INSPIRATION BIOTHERAPEUTICS CO., LTD, priority 2022, published 2025)
Bridge positions count the residues as written; N and C are the ends. Ends that are not written are not given here.

Assays:
[1] = biological target: T1, binding of TSP-1 protein to CD36, a TSP-1 receptor protein (Homo sapiens, UniProt P07996); experiment: ELISA: blocking of CD36 binding to TSP-1 protein; conditions: 100 μM polypeptide, 0.25 μg/mL Fc-tagged CD36, blocking of CD36 binding to TSP-1; for inhibition at 100 µM: 3 h, read-out: Blocking rate (Mean, %)
T1 construct: purchased novoprotein (TSP-1); R&D Systems (Fc-tagged CD36) CU45 (TSP-1); 1955-CD-050 (CD36-Fc)
T1 sequence (P07996 19-1170): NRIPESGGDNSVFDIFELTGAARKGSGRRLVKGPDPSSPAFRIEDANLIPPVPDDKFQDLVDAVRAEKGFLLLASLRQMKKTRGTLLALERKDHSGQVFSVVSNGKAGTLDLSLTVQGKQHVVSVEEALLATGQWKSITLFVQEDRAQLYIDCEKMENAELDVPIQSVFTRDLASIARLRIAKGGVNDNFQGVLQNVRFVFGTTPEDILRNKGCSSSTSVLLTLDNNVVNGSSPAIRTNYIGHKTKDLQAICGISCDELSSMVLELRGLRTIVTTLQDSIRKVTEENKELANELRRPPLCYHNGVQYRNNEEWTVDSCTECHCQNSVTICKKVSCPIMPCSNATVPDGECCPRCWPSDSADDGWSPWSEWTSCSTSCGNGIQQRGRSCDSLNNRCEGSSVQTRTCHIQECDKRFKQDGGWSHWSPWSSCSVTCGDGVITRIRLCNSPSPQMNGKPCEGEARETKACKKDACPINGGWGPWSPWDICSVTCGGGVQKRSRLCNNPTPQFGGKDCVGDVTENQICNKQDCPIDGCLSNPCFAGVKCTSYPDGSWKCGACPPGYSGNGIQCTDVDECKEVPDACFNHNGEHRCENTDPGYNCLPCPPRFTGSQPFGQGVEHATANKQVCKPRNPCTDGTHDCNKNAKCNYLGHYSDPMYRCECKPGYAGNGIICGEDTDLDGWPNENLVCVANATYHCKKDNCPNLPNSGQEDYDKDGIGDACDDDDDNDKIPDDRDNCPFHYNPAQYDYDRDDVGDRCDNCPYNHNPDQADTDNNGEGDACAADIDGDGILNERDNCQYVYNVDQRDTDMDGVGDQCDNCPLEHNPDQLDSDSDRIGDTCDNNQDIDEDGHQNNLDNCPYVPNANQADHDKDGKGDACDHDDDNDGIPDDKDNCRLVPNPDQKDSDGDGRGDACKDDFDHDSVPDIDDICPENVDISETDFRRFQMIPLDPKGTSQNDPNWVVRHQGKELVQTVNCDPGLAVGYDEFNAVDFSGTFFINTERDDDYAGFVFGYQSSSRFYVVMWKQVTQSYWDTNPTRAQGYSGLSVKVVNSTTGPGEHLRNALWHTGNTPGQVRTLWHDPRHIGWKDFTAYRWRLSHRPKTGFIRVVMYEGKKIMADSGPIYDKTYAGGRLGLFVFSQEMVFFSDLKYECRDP
Procedure: ELISA assay was performed to detect the ability of the polypeptides to block the binding of TSP-1 protein to CD36, a TSP-1 receptor protein. TSP-1 protein (novoprotein, Catalog No. CU45) was diluted to 2 μg/mL using 100 mM carbonate buffer and added to sample wells (100 μL/well) of a 96-well ELISA plate (Thermo, Catalog No. 437111), and incubated overnight at 4° C.; after washing the plate twice using 1×PBST wash solution, 200 μL of 1.5% BSA (Sigma, Catalog No. B2064) was added to each well, and incubated at 37° C. for 2 h; after washing the plate 3 times using 1×PBST wash solution, the analytes were added (100 μL/well, 3 replicate wells; for the control group, 0.25 μg/mL of Fc-tagged CD36 protein (R&D Systems, Catalog No. 1955-CD-050); and for the polypeptide-treated groups, a mixture containing Fc-tagged CD36 protein and polypeptide at final concentrations of 0.25 μg/mL and 100 μM, respectively), and incubated at 37° C. for 3 h. After washing the plate 5 times using 1×PBST wash solution, a 1:500 dilution solution of FITC-labeled anti-Fc-tagged antibody (Beyotime, Catalog No. A0556) was added, and incubated for 1 h at 37° C.; after washing the plate 5 times using 1×PBST wash solution, a multifunctional ELISA instrument (TECAN, model: Infinite 200 Pro) was used to detect the intensity of FITC fluorescence signal in each sample well. The ability of the polypeptides to block CD36 binding to TSP-1 protein (Table 2-1) was assessed by calculating the ratio of the fluorescence signal from the polypeptide-treated groups to that of the control group, allowing for the determination of the blocking rate of the polypeptides in inhibiting CD36 binding to TSP-1 protein, i.e., (fluorescence signal of the control group-fluorescence signal of the polypeptide-treated group)/fluorescence signal of the control group×100%. Based on the blocking rate results obtained at the single concentration and on the polypeptide molecule properties, the preferred polypeptide molecules were assayed for concentration dependence (at 0 μM, 0.5 μM, 1 μM, 5 μM, 10 μM, and 100 μM), and IC50 values of the polypeptides for blocking CD36 binding to TSP-1 protein were determined to further assess the abilities of the preferred polypeptide molecules to block the binding of CD36 to TSP-1 (Table 2-2).

active TGF-β = experiment: Active TGF-β level in lung tissue, bleomycin (BLM) mouse lung fibrosis model; assay type: in vivo; conditions: single intratracheal dose 3 mg/kg on Day 7, lung 24 h later; BLM model group = 100.00
Description: This Example was to evaluate the inhibitory effect of polypeptides on active TGF-β level during the progression of fibrotic disease. In this Example, a mouse lung fibrosis model induced by bleomycin (BLM) was used. The BLM animal model offers advantages, including a close mimicry of the pathological features of the primary disease, ease of use, and good reproducibility. It is the most representative model for studying the mechanisms of fibrosis and is recommended for evaluating drug efficacy.
In this Example, 6 to 8-week-old male C57/6J mice weighing 18-20 g were used as subjects for the study. The experimental animals were randomized into groups, 8 animals in each group, and the expressions of pro-fibrotic factors were detected at the endpoint of the experiment (Day 8) in this model. In this example, an aerosol intratracheal metered dosing applicator (Yuyan, model YAN30012) was utilized for intratracheal administration during the modeling and drug delivery processes. The dosing was performed as follows (An Official American Thoracic Society Workshop Report: Use of Animal Models for the Preclinical Assessment of Potential Therapies for Pulmonary Fibrosis, Am J Respir Cell Mol Biol Vol 56, Iss 5, pp 667-679, May 2017): The experimental animals were anesthetized with aerosolized isoflurane (RWD, lot no. 22041701) using a small animal anesthesia machine (RWD, model R500IE). Animals in the appropriate anesthetic state were positioned supine with heads facing up and bodies tilted on an operating platform (tilted at approximately) 60°, secured by their incisors. The practitioner gently lifted the tongue with tissue forceps in the right hand, pushing it outward and upward to open the animal's lower jaw. Holding the laryngoscope (Yuyan, model SR310-RW) in the left hand, the practitioner slid its anterior leaf-shaped blade along the midline of the tongue into the oral cavity until reaching the glottis, gently pressing the body and root of the tongue upward. The needle of the drug applicator was then inserted through the mouth into the glottis alongside the laryngoscope, and 50 μL of liquid was quickly injected. On the day of modeling (Day 1), the experimental animals were randomly assigned to groups and administered a 0.7 USP/kg dose of bleomycin solution (HanHui Pharmaceutical, Batch No. 20080511) via the tracheal route to induce the model. On Day 7, each peptide-treated group received a single intratracheal dose of 50 μL peptide drug (at a dosage of 3 mg/kg), while the model group was given an equal volume of solvent (saline, Kelong, Batch No. L221062501) as a control. Twenty-four hours after drug administration, the animals were dissected to collect lung tissue, which was ground in liquid nitrogen to extract total protein from the lung tissue. The active TGF-β content in the lung tissue of mice from each group was measured using the TGF-β ELISA kit (BOSTER, catalog number EK0515). The ratio of active TGF-β content between the peptide-treated group and the model group was calculated to evaluate the effect of the peptide on active TGF-β level.

P-Smad2/3 = P-Smad2/3 content in lung tissue, BLM mouse fibrosis model; assay type: in vivo; conditions: single intratracheal dose 3 mg/kg on Day 7, lung 24 h later; BLM model group = 100.00
Description: This example aimed to evaluate the inhibitory effect of polypeptides on the TGF-β downstream signaling pathway during fibrosis progression. TGF-β intracellular signaling relies on the phosphorylation events of Smad family proteins. The increase in Smad2/3 phosphorylation levels is an important indicator that signal transduction has occurred in the TGF-β signaling pathway.
In this example, 6- to 8-week-old male C57/6J mice weighing 18-20 g were used as subjects for the study. The experimental animals were randomized into groups, eight animals in each group. In this example, intratracheal administration was performed using an aerosol intratracheal metered dosing applicator during both the modeling and drug delivery processes, as described in Example 4. On the day of modeling (Day 1), the experimental animals were randomly assigned to groups and administered a 0.7 USP/kg dose of bleomycin solution (HanHui Pharmaceutical, Batch No. 20080511) via the tracheal route to induce the model. On Day 7, each peptide-treated group received a single intratracheal dose of peptide drug at a dosage of 3 mg/kg, while the BLM model group was given an equal volume of solvent (saline) as a control. Twenty-four hours after drug administration, the animals were dissected, and the lung tissues were collected and frozen in liquid nitrogen for future use. Total protein from the lung tissue was extracted after grinding the tissue in liquid nitrogen, and the total P-Smad2/3 content in the tissue was measured by using P-Smad2/3 ELISA kit (CST, Catalog No. 12001C). The ratio of the P-Smad2/3 content between the peptide-treated group and the model group was calculated to evaluate the effect of the peptide on TGFβ signaling.

Row | Blocking rate (Mean, %) [1] | inhibition at 100 µM [1] | Substance | active TGF-β content in lung tissue, ratio to model group, Mean(%) (active TGF-β) | P-Smad2/3 content in lung tissue, ratio to model group, Mean(%) (P-Smad2/3)
1 | 16.39% | – | Ac-Gln-Asp-Ala-Glu-Asp-NH2 (Ac-QDAED-NH2) [SEQ ID NO: 02] | – | –
2 | 21.45% | – | Ac-Thr-Gln-Asp-Ala-Glu-Asp-Asn-Thr-Ala-Ser-Tyr-NH2 (Ac-TQDAEDNTASY-NH2) [SEQ ID NO: 32] | – | –
3 | 16.42% | – | Ac-Ser-Gln-Asp-Ala-Glu-Asp-Asn-NH2 (Ac-SQDAEDN-NH2) [SEQ ID NO: 07] | 71.66% | 80.71%
4 | 25.68% | – | Thr-Gln-cyclo[Asp-Ala-Glu-Asp-Asn-Lys] (TQDAEDNK; lactam 3-8) [SEQ ID NO: 42] | 80.59% | 85.16%
5 | 25.05% | – | Ac-Thr-Glu-Asp-Ala-Glu-Asp-Asn-Thr-Val-Ser-Phe-NH2 (Ac-TEDAEDNTVSF-NH2) [SEQ ID NO: 29] | – | –
6 | – | 30.6% | Ac-TQDAEDNT-NH2 [SEQ ID NO: 15, Ac-Thr-Gln-Asp-Ala-Glu-Asp-Asn-Thr-NH2] | – | –
7 | 22.45% | – | Ac-Thr-Gln-Asp-Pro-Glu-Asp-Asn-Thr-Val-Ser-Phe-NH2 (Ac-TQDPEDNTVSF-NH2) [SEQ ID NO: 30] | – | –
8 | 20.22% | – | Ac-Thr-Ser-Asp-Ala-Glu-Asp-Asn-Thr-Val-Ser-Phe-Leu-Gln-NH2 (Ac-TSDAEDNTVSFLQ-NH2) [SEQ ID NO: 38] | – | –
9 | 26.03% | – | Ac-Thr-Gln-Asp-Pro-Glu-Asp-Asn-Thr-Val-NH2 (Ac-TQDPEDNTV-NH2) [SEQ ID NO: 20] | – | –
10 | 28.65% | – | cyclo[Thr-Gln-Asp-Pro-Glu-Asp-Asn] (TQDPEDN; cyclic peptide; MISC_FEATURE - head-to-tail backbone cyclization) [SEQ ID NO: 41] | 74.12% | 81.44%
11 | – | 22.8% | Ac-QDAEDNTAS-NH2 [SEQ ID NO: 23, Ac-Gln-Asp-Ala-Glu-Asp-Asn-Thr-Ala-Ser-NH2] | – | –
12 | 14.54% | – | Ac-Thr-Ser-Asp-Ala-Glu-Asp-Asn-NH2 (Ac-TSDAEDN-NH2) [SEQ ID NO: 10] | – | –
13 | – | 30.2% | Ac-TQDAEDNTQD-NH2 [SEQ ID NO: 49, Ac-Thr-Gln-Asp-Ala-Glu-Asp-Asn-Thr-Gln-Asp-NH2] | 82.64% | 91.98%
14 | 15.63% | – | Ac-Thr-Gln-Asp-Ser-Glu-Asp-Asn-Thr-Val-NH2 (Ac-TQDSEDNTV-NH2) [SEQ ID NO: 21] | – | –
15 | 21.58% | – | Ac-Thr-Gln-Asp-Ala-Glu-Asp-Asn-Thr-Ala-Ser-His-Leu-NH2 (Ac-TQDAEDNTASHL-NH2) [SEQ ID NO: 35] | – | –
16 | 21.71% | – | Ac-Ser-Gln-Asp-Ala-Glu-Asp-Asn-Thr-Val-Ser-Phe-NH2 (Ac-SQDAEDNTVSF-NH2) [SEQ ID NO: 28] | – | –
17 | 16.56% | – | Ac-Thr-Gln-Asp-Ala-Glu-Asp-Pro-NH2 (Ac-TQDAEDP-NH2) [SEQ ID NO: 13] | – | –
18 | 22.41% | – | Ac-Ser-Gln-Asp-Ala-Glu-Asp-Asn-Thr-Val-Ser-Phe-Leu-Gln-NH2 (Ac-SQDAEDNTVSFLQ-NH2) [SEQ ID NO: 37] | – | –
19 | 25.53% | – | Ac-Thr-Gln-Asp-Ala-Glu-Asp-Asn-Thr-Val-Ser-Phe-NH2 (Ac-TQDAEDNTVSF-NH2) [SEQ ID NO: 27] | 89.89% | 88.69%
20 | 17.84% | – | Ac-Gln-Asp-Pro-Glu-Asp-NH2 (Ac-QDPED-NH2) [SEQ ID NO: 01] | – | –
21 | 16.02% | – | Ac-Thr-Gln-Asp-Pro-Glu-Asp-NH2 (Ac-TQDPED-NH2) [SEQ ID NO: 03] | – | –
22 | 18.44% | – | Ac-Thr-Gln-Asp-Ala-Glu-Asp-Asn-Thr-Ala-Ser-Phe-NH2 (Ac-TQDAEDNTASF-NH2) [SEQ ID NO: 31] | 83.22% | 90.02%
23 | 22.29% | – | Ac-Thr-Gln-Asp-Pro-Glu-Asp-Asn-Thr-Val-Ser-Phe-Leu-Gln-NH2 (Ac-TQDPEDNTVSFLQ-NH2) [SEQ ID NO: 39] | – | –
24 | 19.10% | – | Ac-Thr-Gln-Asp-Pro-Ala-Glu-Asp-NH2 (Ac-TQDPAED-NH2) [SEQ ID NO: 47] | 83.78% | 93.25%
25 | 15.19% | – | Ac-Thr-Gln-Asp-Ser-Glu-Asp-Asn-NH2 (Ac-TQDSEDN-NH2) [SEQ ID NO: 11] | – | –
26 | 16.86% | – | Ac-Thr-Asn-Asp-Ala-Glu-Asp-Asn-Thr-Val-NH2 (Ac-TNDAEDNTV-NH2) [SEQ ID NO: 19] | – | –
27 | 18.79% | – | Ac-Ser-Gln-Asp-Ala-Glu-Asp-Asn-Thr-Val-NH2 (Ac-SQDAEDNTV-NH2) [SEQ ID NO: 18] | – | –
28 | 24.87% | – | Ac-Gln-Asp-Ala-Glu-Asp-Asn-Thr-Ala-NH2 (Ac-QDAEDNTA-NH2) [SEQ ID NO: 16] | – | –
29 | 20.44% | – | Ac-Thr-Gln-Asp-Ala-Glu-Asp-Asn-Thr-Ala-Ser-Trp-NH2 (Ac-TQDAEDNTASW-NH2) [SEQ ID NO: 34] | – | –
